Reference: publication PMC3057708 (Molecular Biology of the Cell, 2011)

B1: purified full-length Sro7, soluble (natural protein)
chain: MFGSKRLKNVKEAFKSLKGQNSETPIENSKASFKSKNSKTSTISKDAKSSSSLKIPISSNNKNKIFSLAETNKYGMSSKPIAAAFDFTQNLLAIATVTGEVHIYGQQQVEVVIKLEDRSAIKEMRFVKGIYLVVINAKDTVYVLSLYSQKVLTTVFVPGKITSIDTDASLDWMLIGLQNGSMIVYDIDRDQLSSFKLDNLQKSSFFPAARLSPIVSIQWNPRDIGTVLISYEYVTLTYSLVENEIKQSFIYELPPFAPGGDFSEKTNEKRTPKVIQSLYHPNSLHIITIHEDNSLVFWDANSGHMIMARTVFETEINVPQPDYIRDSSTNAAKISKVYWMCENNPEYTSLLISHKSISRGDNQSLTMIDLGYTPRYSITSYEGMKNYYANPKQMKIFPLPTNVPIVNILPIPRQSPYFAGCHNPGLILLILGNGEIETMLYPSGIFTDKASLFPQNLSWLRPLATTSMAASVPNKLWLGALSAAQNKDYLLKGGVRTKRQKLPAEYGTAFITGHSNGSVRIYDASHGDIQDNASFEVNLSRTLNKAKELAVDKISFAAETLELAVSIETGDVVLFKYEVNQFYSVENRPESGDLEMNFRRFSLNNTNGVLVDVRDRAPTGVRQGFMPSTAVHANKGKTSAINNSNIGFVGIAYAAGSLMLIDRRGPAIIYMENIREISGAQSACVTCIEFVIMEYGDDGYSSILMVCGTDMGEVITYKILPASGGKFDVQLMDITNVTSKGPIHKIDAFSKETKSSCLATIPKMQNLSKGLCIPGIVLITGFDDIRLITLGKSKSTHKGFKYPLAATGLSYISTVEKNNDRKNLTVIITLEINGHLRVFTIPDFKEQMSEHIPFPIAAKYITESSVLRNGDIAIRVSEFQASLFSTVKEQDTLAPVSDTLYINGIRIPYRPQVNSLQWARGTVYCTPAQLNELLGGVNRPASKYKESIIAEGSFSERSSDDNNANHPEHQYTKPTRKGRNSSYGVLRNVSRAVETRWDAVEDRFNDYATAMGETMNEAVEQTGKDVMKGALGF
B2: GST-Sec4 (natural protein)
chain: MSGLRTVSASSGNGKSYDSIMKILLIGDSGVGKSCLLVRFVEDKFNPSFITTIGIDFKIKTVDINGKKVKLQLWDTAGQERFRTITTAYYRGAMGIILVYDVTDERTFTNIKQWFKTVNEHANDEAQLLLVGNKSDMETRVVTADQGEALAKELGIPFIESSAKNDDNVNEIFFTLAKLIQEKIDSNKLVGVGNGKEGNISINSGSGNSSKSNCC

Columns and labels:
[1] = target: B2; experiment: pull-down
[2] = target: B1; experiment: pull-down

Binder	fold binding to GTPγS-bound Sec4 over GDP-bound Sec4 [1] [fold]	binding result [2]
B1	> 5	–
B2	–	binds
